Reference: patent US8398971B2, “Methods, compounds, and compositions for treatment and prophylaxis in the respiratory tract” (NexBio, Inc., priority 2009, dated 2013)
Where two headings read alike, the source gives them in different places.

How the values were obtained:
[1] = system: muscarinic receptor mediated airway resistance; assay type: in vivo, BALB/c mice; settings: Example 5, 5, 10 and 20 mg/ml carbachol
[2] = system: muscarinic receptor mediated airway resistance; assay: airway resistance (Penh) in naive mice, methacholine challenged; assay type: in vivo, BALB/c mice; settings: for dosage level sufficient for reduced airway responsiveness: intranasal once daily for three days

B1: DAS181: fusion protein comprising a catalytic domain of a sialidase, and an anchoring domain (SEQ ID NO:21) (protein)
chain: MGDHPQATPAPAPDASTELPASMSQAQHLAANTATDNYRIPAITTAPNGDLLISYDERPKDNGNGGSDAPNPNHIVQRRSTDGGKTWSAPTYIHQGTETGKKVGYSDPSYVVDHQTGTIFNFHVKSYDQGWGGSRGGTDPENRGIIQAEVSTSTDNGWTWTHRTITADITKDKPWTARFAASGQGIQIQHGPHAGRLVQQYTIRTAGGAVQAVSVYSDDHGKTWQAGTPIGTGMDENKVVELSDGSLMLNSRASDGSGFRKVAHSTDGGQTWSEPVSDKNLPDSVDNAQIIRAFPNAAPDDPRAKVLLLSHSPNPRPWSRDRGTISMSCDDGASWTTSKVFHEPFVGYTTIAVQSDGSIGLLSEDAHNGADYGGIWYRNFTMNWLGEQCGQKPAKRKKKGGKNGKNRRNRKKKNP
airway resistance vs PBS ([1]; 0.6 mg/kg once daily for three days): significantly reduced airway resistance
airway resistance vs baseline ([1]; 0.6 mg/kg): increased airway resistance above baseline
difference in airway resistance between dose groups ([2]; Example 3, 0.06, 0.1, 0.6 mg/kg): No difference was observed between the different dose groups
airway resistance vs PBS ([2]; Example 3, 0.06, 0.1 or 0.6 mg/kg intranasal once daily for three days, 48 mg/ml Mch): significantly reduced airway resistance
dosage level sufficient for reduced airway responsiveness ([2]; Example 3): ≤ 0.06 mg/kg
airway resistance vs PBS control ([2]; Example 4, 0.6 mg/kg once daily for three days, 6, 12, 24 and 48 mg/ml Mch): significantly reduced airway resistance
airway resistance vs baseline ([2]; Example 4, 0.6 mg/kg, 3 and 6 mg/ml methacholine): did not increase airway resistance above baseline
airway resistance vs baseline ([2]; Example 4, 0.6 mg/kg, 12, 24 and 48 mg/ml methacholine): increased airway resistance above baseline
airway resistance in response to Mch challenge vs PBS ([2]; Example 7, 0.6 mg/kg, one day of treatment): no difference in airway resistance
airway resistance vs PBS ([2]; Example 7, 0.6 mg/kg, three days of treatment, 24 and 48 mg/ml Mch): significantly reduced airway resistance
airway resistance vs PBS ([2]; Example 7, 0.6 mg/kg, two days of treatment, 3, 6 and 48 mg/ml methacholine): not at 3, 6 and 48 mg/ml
airway resistance vs PBS ([2]; Example 7, 0.6 mg/kg, two days of treatment, 12 and 24 mg/ml methacholine): appears to reduce airway resistance
difference in airway resistance between dose groups ([2]; Example 8, 0.0008, 0.004, 0.02, 0.1 mg/kg): No difference was observed between the different dose groups
airway resistance vs PBS ([2]; Example 8, 0.0008, 0.004, 0.02 or 0.1 mg/kg once daily for three days, 24 and 48 mg/ml Mch): significantly reduced airway resistance
dosage level sufficient for reduced airway responsiveness ([2]; Example 8): ≤ 0.0008 mg/kg
average percentage change Penh (increase in airway resistance over baseline) ([2]; Example 9, 10 ng/kg once daily three days, 24 mg/ml Mch, PBS 550-560%): 525-530%
average percentage change Penh (increase in airway resistance over baseline) ([2]; Example 9, 0.1 μg/kg, 24 mg/ml Mch): 450%
average percentage change Penh (increase in airway resistance over baseline) ([2]; Example 9, 1 μg/kg, 24 mg/ml Mch): 525%
average percentage change Penh (increase in airway resistance over baseline) ([2]; Example 9, 10 μg/kg, 24 mg/ml Mch): 225%
average percentage change Penh (increase in airway resistance over baseline) ([2]; Example 9, 0.1 mg/kg, 24 mg/ml Mch): 200%
airway resistance vs PBS ([2]; Example 9, all doses 10 ng/kg to 0.1 mg/kg, 24 mg/ml Mch): reduced airway resistance
airway resistance in response to Mch ([2]; Example 9, dose levels of 0.01 or 0.1 mg/kg): significantly reduced airway resistance
